Experimental data: US20210015937A1 (CRESCENDO BIOLOGICS, published 2021)

T1: recombinant human LAG-3-Fc (human, UniProt P18627 23-450)
T1 construct: also called human LAG-3 (R&D Systems cat no. 2319-L3); LAG3 antigen
T1 sequence: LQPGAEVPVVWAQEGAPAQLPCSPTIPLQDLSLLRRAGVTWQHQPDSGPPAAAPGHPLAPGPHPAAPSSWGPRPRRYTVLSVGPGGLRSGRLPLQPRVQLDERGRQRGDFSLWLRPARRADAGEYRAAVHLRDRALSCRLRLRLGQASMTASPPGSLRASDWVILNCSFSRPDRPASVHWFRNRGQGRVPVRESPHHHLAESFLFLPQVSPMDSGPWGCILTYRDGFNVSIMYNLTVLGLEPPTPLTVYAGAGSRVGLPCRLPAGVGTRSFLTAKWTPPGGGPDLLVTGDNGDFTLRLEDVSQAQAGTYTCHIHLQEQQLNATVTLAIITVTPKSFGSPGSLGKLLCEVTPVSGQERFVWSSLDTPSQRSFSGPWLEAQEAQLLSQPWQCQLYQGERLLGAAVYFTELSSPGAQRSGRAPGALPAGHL

T2: human LAG-3 expressed on cells (human, UniProt P18627 23-525)
T2 sequence: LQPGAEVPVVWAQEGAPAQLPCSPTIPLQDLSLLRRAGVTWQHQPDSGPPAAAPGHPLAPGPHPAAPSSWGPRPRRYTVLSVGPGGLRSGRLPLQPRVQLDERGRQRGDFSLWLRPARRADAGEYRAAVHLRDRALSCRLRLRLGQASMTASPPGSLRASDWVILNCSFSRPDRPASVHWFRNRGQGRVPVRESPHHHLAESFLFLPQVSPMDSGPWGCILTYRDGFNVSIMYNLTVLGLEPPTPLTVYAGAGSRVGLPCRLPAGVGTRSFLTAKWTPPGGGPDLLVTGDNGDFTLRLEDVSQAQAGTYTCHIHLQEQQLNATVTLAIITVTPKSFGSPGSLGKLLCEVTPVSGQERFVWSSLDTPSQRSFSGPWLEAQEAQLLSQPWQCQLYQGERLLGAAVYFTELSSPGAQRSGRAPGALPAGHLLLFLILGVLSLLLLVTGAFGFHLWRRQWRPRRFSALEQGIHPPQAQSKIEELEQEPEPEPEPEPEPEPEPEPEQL


What follows are binders tested against T3, human PD-1 expressed on cells (human, UniProt Q15116 25-288) (assay: cell-based or functional assay).
T3 sequence (Q15116 25-288 limits assumed): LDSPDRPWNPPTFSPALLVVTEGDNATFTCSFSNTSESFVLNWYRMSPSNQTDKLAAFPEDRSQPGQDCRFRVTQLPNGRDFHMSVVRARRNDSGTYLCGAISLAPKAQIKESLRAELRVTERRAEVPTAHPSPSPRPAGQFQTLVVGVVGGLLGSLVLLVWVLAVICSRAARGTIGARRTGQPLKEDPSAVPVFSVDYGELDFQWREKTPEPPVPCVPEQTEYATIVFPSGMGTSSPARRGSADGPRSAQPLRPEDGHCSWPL

EC50 (M), NFAT-Luciferase Reporter Gene assay (PD-1:PD-L1)	Binder
9.7e-09 M	VH 2.77 (VHH) VHH: EVQLVESGGGLVKPGGSLRLSCAASGFTFSDSSMTWMRQAPGKGLEWVSYISSGGGVKFYTDSVKGRFTISRDNAKNSLYLQMNSLRAEDTAVYYCAREAPLRLGESPHDAFDISGQGTMVTVSS
3.7e-08 M	2.77-6GS-1.1-6GS-1.1 (bispecific antibody) EVQLVESGGGLVKPGGSLRLSCAASGFTFSDSSMTWMRQAPGKGLEWVSYISSGGGVKFYTDSVKGRFTISRDNAKNSLYLQMNSLRAEDTAVYYCAREAPLRLGESPHDAFDISGQGTMVTVSSGGGGSGGGGSGGGGSGGGGSGGGGSGGGGSEVQLVESGGGVVRPGGSLRLSCSASGFTFDDYGMSWVRQAPGKGLEWVSGIHWNGGNSGYADSVKGRFTISRDNAKNSLYLQMNSLRAEDTALYYCARIPREDCSSASCYTDAIDFWGPGTMVTVSSGGGGSGGGGSGGGGSGGGGSGGGGSGGGGSEVQLVESGGGVVRPGGSLRLSCSASGFTFDDYGMSWVRQAPGKGLEWVSGIHWNGGNSGYADSVKGRFTISRDNAKNSLYLQMNSLRAEDTALYYCARIPREDCSSASCYTDAIDFWGPGTMVTVSSAAAHHHHHH

Each binder was assayed against T1, recombinant human LAG-3-Fc (assay: BLI (Octet); human LAG-3-Fc amine-coupled to biosensor, VH in solution, 1:1 fit).
Experimental: Binding kinetics were measured in real-time bio-layer interferometer based biosensor Octet (ForteBio). […] All the binding studies were performed in HBS-ET Octet kinetics buffer. Biosensors were washed in Octet kinetics buffer in between different steps. A seven point, two-fold dilution series of each Humabody® VH was made with a top concentration of 1.6 μM. The contact time for each of the association steps was 150 seconds and the dissociation step was 300-400 seconds. Kinetic association (kₐ) and dissociation (kd) rate constants were determined by processing and fitting the data to a 1:1 binding model using ForteBio Analysis software.

Kd	koff	kon	Binder
72.1 nM	0.00179 s⁻¹	24800 M⁻¹ s⁻¹	VH 1.2 (VHH, Human VH single domain antibody against LAG-3; It is VH 1.1 with S23A, P119Q, N57S and S58T; also called variant 2) VHH: EVQLVESGGGVVRPGGSLRLSCAASGFTFDDYGMSWVRQAPGKGLEWVSGIHWNGGSTGYADSVKGRFTISRDNAKNSLYLQMNSLRAEDTALYYCARIPREDCSSASCYTDAIDFWGQGTMVTVSS
13 nM	0.00126 s⁻¹	96700 M⁻¹ s⁻¹	variant 8 of VH 1.1 (VHH, 4) VHH: EVQLVESGGGVVRPGGSLRLSCAASGFTFNDYGMSWVRQAPGKGLEWVSGIHWNGGNSGYADSVKGRFTISRDNAKNSLYLQMNSLRAEDTALYYCARIPREDCSSTSCYTDAIDFWGPGTMVTVSS
7.9 nM	0.000517 s⁻¹	65500 M⁻¹ s⁻¹	variant 5 of VH 1.1 (VHH, 4) VHH: EVQLVESGGGVVRPGGSLRLSCAASGFTFNDFGMSWVRQAPGKGLEWVSGIHWNGGNTGYADSVKGRFTISRDNAKNSLYLQMNSLRAEDTALYYCARIPREDCSSASCYTDAIDFWGPGTMVTVSS
53.2 nM	0.00383 s⁻¹	72100 M⁻¹ s⁻¹	variant 9 of VH 1.1 (VHH, 4) VHH: EVQLVESGGGVVRPGGSLRLSCAASGFTFDDYGMSWVRQAPGKGLEWVSGIHWNGDSTGYADSVKGRFTISRDNAKNSLYLQMNSLRAEDTALYHCARIPREDCSSASCYTDAIDFWGPGTMVTVSS
35.5 nM	0.000847 s⁻¹	23900 M⁻¹ s⁻¹	variant 7 of VH 1.1 (VHH, 4) VHH: EVQLVESGGGVVRPGGSLRLSCAASGFTFDDFGMSWVRQAPGKGLEWVSGIHWNGGNTGYADSVKGRFTISRDNAKNSLYLQMNSLRAEDTALYYCARIPREDCSVAACYTDAIDFWGPGTMVTVSS
31.3 nM	0.00343 s⁻¹	110000 M⁻¹ s⁻¹	variant 6 of VH 1.1 (VHH, 4) VHH: EVQLVESGGGVVRPGGSLRLSCAASGFTFDDFGMSWVRQAPGKGLEWVSGIHWNSDITAYADSVKGRFTISRDNAKNSLYLQMNSLRAEDTALYYCARIPREDCSSASCYTDAIDFWGPGTMVTVSS
8.41 nM	0.000479 s⁻¹	56900 M⁻¹ s⁻¹	variant 4 of VH 1.1 (VHH, 4) VHH: EVQLVESGGGVVRPGGSLRLSCAASGFTFDDYGMSWVRQAPGKGLEWVSGIHWIGGNSGYADSVKGRFTISRDNAKNSLYLQMNSLRAEDTALYYCARIPREDCSSASCYTDAIDFWGPGTMVTVSS
34.5 nM	0.000899 s⁻¹	26100 M⁻¹ s⁻¹	variant 3 of VH 1.1 (VHH, 4) VHH: EVQLVESGGGVVRPGGSLRLSCAASGFTFDDYGMSWVRQAPGKGLEWVSGIHWNGGSTGYADSVKGRFTISRDNAKNSLYLQMNSLRAEDTALYYCARIPREDCSSASCYTDAIDFWGPGTMVTVSS
35.5 nM	0.000912 s⁻¹	27000 M⁻¹ s⁻¹	variant 1 of VH 1.1 (VHH) VHH: EVQLVESGGGVVRPGGSLRLSCAASGFTFDDYGMSWVRQAPGKGLEWVSGIHWNGGNSGYADSVKGRFTISRDNAKNSLYLQMNSLRAEDTALYYCARIPREDCSSASCYTDAIDFWGPGTMVTVSS

What follows are binders tested against T4, Rhesus monkey LAG-3 (used as cynomolgus LAG-3) (Rhesus monkey (called cynomolgus in the …)) (assay: BLI (Octet); cynomolgus LAG-3 immobilised on ARG2 sensors, 1:1 fit).
T4 construct: extracellular domain
Experimental: (§1) Binding kinetics for multi-valent and bispecific VH were also measured in real-time bio-layer interferometer based biosensor Octet (ForteBio). […] All the binding studies were performed in HBS-ET Octet kinetics buffer. Biosensors were washed in Octet kinetics buffer in between different steps. […] The contact time for each of the association steps was 150 seconds and the dissociation step was 400 seconds. […] To compare the constructs, kinetic association (kₐ) and dissociation (kd) rate constants were determined by processing and fitting the data to a 1:1 binding model using ForteBio Analysis software.

Kd	koff	kon	Binder
0.536 nM	0.000148 s⁻¹	276000 M⁻¹ s⁻¹	VH 1.2-6GS-VH 1.2 (VHH, It is built here from its name, the (Gly4Ser)n linker definition and the statement that the constructs used carried C-terminal AAA-His6; also called 1.2-6GS-1.2; LAG3 bivalent) EVQLVESGGGVVRPGGSLRLSCAASGFTFDDYGMSWVRQAPGKGLEWVSGIHWNGGSTGYADSVKGRFTISRDNAKNSLYLQMNSLRAEDTALYYCARIPREDCSSASCYTDAIDFWGQGTMVTVSSGGGGSGGGGSGGGGSGGGGSGGGGSGGGGSEVQLVESGGGVVRPGGSLRLSCAASGFTFDDYGMSWVRQAPGKGLEWVSGIHWNGGSTGYADSVKGRFTISRDNAKNSLYLQMNSLRAEDTALYYCARIPREDCSSASCYTDAIDFWGQGTMVTVSSAAAHHHHHH

These binders were tested against T1, recombinant human LAG-3-Fc (assay: BLI (Octet); human LAG-3-Fc captured on protein G biosensors, 1:1 fit).
Experimental: as §1

Kd	koff	kon	Binder
0.744 nM	0.00112 s⁻¹	1.5e+06 M⁻¹ s⁻¹	VH 1.2-6GS-VH 1.2 (VHH, It is built here from its name, the (Gly4Ser)n linker definition and the statement that the constructs used carried C-terminal AAA-His6; also called 1.2-6GS-1.2; LAG3 bivalent) EVQLVESGGGVVRPGGSLRLSCAASGFTFDDYGMSWVRQAPGKGLEWVSGIHWNGGSTGYADSVKGRFTISRDNAKNSLYLQMNSLRAEDTALYYCARIPREDCSSASCYTDAIDFWGQGTMVTVSSGGGGSGGGGSGGGGSGGGGSGGGGSGGGGSEVQLVESGGGVVRPGGSLRLSCAASGFTFDDYGMSWVRQAPGKGLEWVSGIHWNGGSTGYADSVKGRFTISRDNAKNSLYLQMNSLRAEDTALYYCARIPREDCSSASCYTDAIDFWGQGTMVTVSSAAAHHHHHH

Target: T3, human PD-1 expressed on cells
Test: cell-based or functional assay
Remark: another data set of the same source

potency in the PD-1:PD-L1 NFAT-luciferase reporter assay, fold lower than monoclonal antibodies	Binder
> 30 fold	2.77-6GS-1.1-6GS-1.1 (bispecific antibody) EVQLVESGGGLVKPGGSLRLSCAASGFTFSDSSMTWMRQAPGKGLEWVSYISSGGGVKFYTDSVKGRFTISRDNAKNSLYLQMNSLRAEDTAVYYCAREAPLRLGESPHDAFDISGQGTMVTVSSGGGGSGGGGSGGGGSGGGGSGGGGSGGGGSEVQLVESGGGVVRPGGSLRLSCSASGFTFDDYGMSWVRQAPGKGLEWVSGIHWNGGNSGYADSVKGRFTISRDNAKNSLYLQMNSLRAEDTALYYCARIPREDCSSASCYTDAIDFWGPGTMVTVSSGGGGSGGGGSGGGGSGGGGSGGGGSGGGGSEVQLVESGGGVVRPGGSLRLSCSASGFTFDDYGMSWVRQAPGKGLEWVSGIHWNGGNSGYADSVKGRFTISRDNAKNSLYLQMNSLRAEDTALYYCARIPREDCSSASCYTDAIDFWGPGTMVTVSSAAAHHHHHH

What follows are binders tested against T2, human LAG-3 expressed on cells (assay: cell-based or functional assay).

EC50 (M), NFAT-Luciferase Reporter Gene assay (LAG-3:MHCII)	Binder
6.6e-09 M	2.77-6GS-1.1-6GS-1.1 (bispecific antibody) EVQLVESGGGLVKPGGSLRLSCAASGFTFSDSSMTWMRQAPGKGLEWVSYISSGGGVKFYTDSVKGRFTISRDNAKNSLYLQMNSLRAEDTAVYYCAREAPLRLGESPHDAFDISGQGTMVTVSSGGGGSGGGGSGGGGSGGGGSGGGGSGGGGSEVQLVESGGGVVRPGGSLRLSCSASGFTFDDYGMSWVRQAPGKGLEWVSGIHWNGGNSGYADSVKGRFTISRDNAKNSLYLQMNSLRAEDTALYYCARIPREDCSSASCYTDAIDFWGPGTMVTVSSGGGGSGGGGSGGGGSGGGGSGGGGSGGGGSEVQLVESGGGVVRPGGSLRLSCSASGFTFDDYGMSWVRQAPGKGLEWVSGIHWNGGNSGYADSVKGRFTISRDNAKNSLYLQMNSLRAEDTALYYCARIPREDCSSASCYTDAIDFWGPGTMVTVSSAAAHHHHHH
5.4e-09 M	VH1.1-8GS-VH1.1-His6 (VHH) EVQLVESGGGVVRPGGSLRLSCSASGFTFDDYGMSWVRQAPGKGLEWVSGIHWNGGNSGYADSVKGRFTISRDNAKNSLYLQMNSLRAEDTALYYCARIPREDCSSASCYTDAIDFWGPGTMVTVSSGGGGSGGGGSGGGGSGGGGSGGGGSGGGGSGGGGSGGGGSEVQLVESGGGVVRPGGSLRLSCSASGFTFDDYGMSWVRQAPGKGLEWVSGIHWNGGNSGYADSVKGRFTISRDNAKNSLYLQMNSLRAEDTALYYCARIPREDCSSASCYTDAIDFWGPGTMVTVSSAAAHHHHHH
1.4e-09 M	VH1.1-4GS-VH1.1-His6 (VHH) EVQLVESGGGVVRPGGSLRLSCSASGFTFDDYGMSWVRQAPGKGLEWVSGIHWNGGNSGYADSVKGRFTISRDNAKNSLYLQMNSLRAEDTALYYCARIPREDCSSASCYTDAIDFWGPGTMVTVSSGGGGSGGGGSGGGGSGGGGSEVQLVESGGGVVRPGGSLRLSCSASGFTFDDYGMSWVRQAPGKGLEWVSGIHWNGGNSGYADSVKGRFTISRDNAKNSLYLQMNSLRAEDTALYYCARIPREDCSSASCYTDAIDFWGPGTMVTVSSAAAHHHHHH
3.3e-09 M	VH1.1-12GS-VH1.1-His6 (VHH) EVQLVESGGGVVRPGGSLRLSCSASGFTFDDYGMSWVRQAPGKGLEWVSGIHWNGGNSGYADSVKGRFTISRDNAKNSLYLQMNSLRAEDTALYYCARIPREDCSSASCYTDAIDFWGPGTMVTVSSGGGGSGGGGSGGGGSGGGGSGGGGSGGGGSGGGGSGGGGSGGGGSGGGGSGGGGSGGGGSEVQLVESGGGVVRPGGSLRLSCSASGFTFDDYGMSWVRQAPGKGLEWVSGIHWNGGNSGYADSVKGRFTISRDNAKNSLYLQMNSLRAEDTALYYCARIPREDCSSASCYTDAIDFWGPGTMVTVSSAAAHHHHHH
